# Test results from US20240084003A1 (SIMCERE ZAIMING PHARMACEUTICAL, published 2024).
# Changes are numbered by the printed parent chain.
# T1: monkey CD22 protein (ACROBiosystems, catalog number SI2-R52Ha) (monkey, UniProt F6W485 20-688)
# T1 construct: commercial protein; also called monkey CD22-ECD; monkey CD22-ECD-His
# T1 sequence: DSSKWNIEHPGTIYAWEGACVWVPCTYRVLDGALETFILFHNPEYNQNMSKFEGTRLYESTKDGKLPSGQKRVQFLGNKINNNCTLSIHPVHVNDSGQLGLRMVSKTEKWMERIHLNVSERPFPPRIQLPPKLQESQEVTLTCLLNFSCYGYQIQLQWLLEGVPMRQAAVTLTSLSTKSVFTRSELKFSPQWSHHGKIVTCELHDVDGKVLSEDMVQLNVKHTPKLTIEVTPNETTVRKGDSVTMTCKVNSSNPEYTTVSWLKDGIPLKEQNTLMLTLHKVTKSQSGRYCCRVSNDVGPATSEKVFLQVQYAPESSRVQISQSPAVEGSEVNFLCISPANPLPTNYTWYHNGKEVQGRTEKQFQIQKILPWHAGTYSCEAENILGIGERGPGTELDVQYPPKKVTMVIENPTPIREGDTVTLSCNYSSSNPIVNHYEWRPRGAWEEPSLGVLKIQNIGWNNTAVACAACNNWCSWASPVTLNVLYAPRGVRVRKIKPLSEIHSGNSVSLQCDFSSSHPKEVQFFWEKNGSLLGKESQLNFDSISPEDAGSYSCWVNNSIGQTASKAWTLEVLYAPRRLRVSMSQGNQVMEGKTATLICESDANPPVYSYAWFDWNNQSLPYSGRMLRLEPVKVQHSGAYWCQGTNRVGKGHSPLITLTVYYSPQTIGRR
# B1: F1.280.1 (antibody, human IgG1, kappa, V domains shown)
# VH: QIQLVQSGPELKKPGETVKISCKASGYTFTTYGMSWVKQTPGKGLTWMGWINTDSGVPTYADDFKRRFAFSLEASATTAYLQINNLKNEDTATYFCARGGPDYWGQGTTLTVSS
# VL: DILLTQSPATLSVTPGETVSLSCRASQSIYKNLHWYHQKSHRSPRLLIKYASDSISGIPSRFTGSGSGTNFTLSINSVKPEDEGIYYCLQGYIVPLTFGAGTKLELKR
# notes: human-murine chimeric IgG1 kappa
# B2: F2.99.1 (antibody, human IgG1, lambda, V domains shown)
# VH: QVTLKESGPGILQPSQTLSLTCSFSGFSLSTFPMGVGWIRQPSGKGLEWLAHIWWDDDEYYNPVLKSRLTISKDTSKKQVYLRIANVDTVDTATYYCTRANWDRWYFDVWGTGTTVTVSS
# VL: QLVLTQSSSASFSLGASAKLTCTLSRQHSAYTIEWYQQQPLKPPKYVMEVKKDGSHSTGDGIPDRFSGSSSGADRYLSISNIQPEDEAIYICGVGDTIKEHFVFGGGTKVTVLG
# notes: human-murine chimeric IgG1 lambda; VL name legible
# B3: F2.42.9 (antibody, human IgG1, lambda, V domains shown)
# VH: QVTLKESGPGILQPSQTLSLTCSFSGFSLSTFDRGVGWIRQPSGKGLEWLAHIWWNDKKFYNPVLKSRLTISKDTSKNQVFLTIANVDSADTATYSCARIVWDKYYFDYWGQGIPLTVSS
# VL: B2 VL with R26S, Y46F, E49D, V50L, D64A, S78T, H101Q, F102Y
# notes: as for B2
# Key:
# [1] = molecular target: T1, monkey CD22 protein (ACROBiosystems, …); experiment: ELISA, coated monkey CD22 protein, antibody 100 nM
# Description: (§1) In order to detect the binding activity of CD22 human-murine chimeric antibodies to CD22 protein, the purified human CD22-ECD-His protein obtained in Example 2 was diluted with PBS to a final concentration of 2 μg/mL, and then added to 96-well ELISA plate at 100 μl/well. The plate was sealed with plastic film and incubated overnight at 4° C., the plate was washed 2 times with PBS the next day, and then a blocking solution [PBS+2% (w/w) BSA] was added for blocking at room temperature for 2 hours. […] After incubation at 37° C. for 2 hours, the plate was washed 3 times with PBS. HRP (horseradish peroxidase)-labeled secondary antibody (purchased from Sigma, catalog number: A0170) was added, and incubated at 37° C. for 2 hours, and the plate was washed 5 times with PBS. TMB substrate was added at 50 μl/well, and incubated at room temperature for 30 minutes, then a stop solution (1.0 N HCl) was added at 50 μl/well.
# (§2) In order to detect the species cross-binding activity of the chimeric antibodies, an ELISA plate was coated with commercial murine CD22 protein (ACROBiosystems, catalog number: SI2-M52Ha) and monkey CD22 protein (ACROBiosystems, catalog number: SI2-R52Ha), respectively, and the ELISA detection was performed according to the method in Example 5.1.
# [2] = molecular target: T1, monkey CD22 protein (ACROBiosystems, …); experiment: ELISA, coated monkey CD22 protein, antibody 0.1 nM
# Description: as §1, §2
# [3] = molecular target: T1, monkey CD22 protein (ACROBiosystems, …); experiment: ELISA, coated monkey CD22 protein, antibody 0.00001 nM
# Description: as §1, §2
# [4] = molecular target: T2, CD22 on cynomolgus monkey peripheral blood B cells (cynomolgus monkey (Macaca fascicularis)); experiment: FACS, cynomolgus PBMC, CD20+ B cells, antibody 100 nM
# T2 construct: whole, on cells; also called cynomolgus monkey B cells
# Source text: (§3) The monkey peripheral blood mononuclear cells were extracted from fresh cynomolgus monkey peripheral blood (purchased from Shanghai Medicilon Inc.) according to the instructions of Ficoll-Paque Plus (purchased from GE Healthcare, catalog number: 171440-02). After the cell suspension was centrifuged, the cells were resuspended in PBS containing 1% BSA, and then the cells were counted. At the same time, the murine antibody Brilliant Violet 605 anti-human CD20 (catalog number: 302334, purchased from Biolegend) with monkey CD20 cross-binding activity and the chimeric antibodies to be tested (1 nM, 10 nM and 100 nM) were added and incubated at room temperature for 1 hour. After washing the cells three times, APC-labeled secondary antibody anti-human IgG Fc (catalog number: 409306, purchased from Biolegend) was added. After incubation at room temperature in the dark for 30 minutes, the cells were washed 5 times, gently resuspended with PBS containing 1% BSA, and detected and analyzed by FACS (FACS Canto™, purchased from BD Company). Wherein CD20 was used as a marker of B cells, and the CD20-positive B cell population was gated, the proportion of chimeric antibody positive cells was analyzed, and the proportion of chimeric antibody positive cell population to B cell population was calculated after treatments with the chimeric antibodies at the concentrations of 100 nM, 10 nM and 1 nM, respectively. The scatter plot of double-stained cells by Brilliant Violet 605-labeled CD20 and APC secondary antibody indirectly labeled chimeric antibody is shown in FIG. 10A-FIG. 10B (under the condition of 1 nM of chimeric antibody concentration).
# [5] = molecular target: T2, CD22 on cynomolgus monkey peripheral …; experiment: FACS, cynomolgus PBMC, CD20+ B cells, antibody 1 nM
# Source text: as §3
# [6] = molecular target: T1, monkey CD22 protein (ACROBiosystems, …); experiment: ELISA, coated monkey CD22 protein, antibody 0.001 nM
# Description: as §1, §2
# [7] = molecular target: T2, CD22 on cynomolgus monkey peripheral …; experiment: FACS, cynomolgus PBMC, CD20+ B cells, antibody 10 nM
# Source text: as §3
# [8] = molecular target: T1, monkey CD22 protein (ACROBiosystems, …); experiment: ELISA, coated monkey CD22 protein, antibody 0.0001 nM
# Description: as §1, §2
# [9] = molecular target: T1, monkey CD22 protein (ACROBiosystems, …); experiment: ELISA, coated monkey CD22 protein, antibody 10 nM
# Description: as §1, §2
# [10] = molecular target: T1, monkey CD22 protein (ACROBiosystems, …); experiment: ELISA, coated monkey CD22 protein, antibody 0.01 nM
# Description: as §1, §2
Binder,OD450 [1],OD450 [2],OD450 [3],Proportion of chimeric antibody positive cells to B cells (%) [4],Proportion of chimeric antibody positive cells to B cells (%) [5],OD450 [6],Proportion of chimeric antibody positive cells to B cells (%) [7],OD450 [8],OD450 [9],OD450 [10]
B1,0.2 OD450,0.06 OD450,0.06 OD450,35%,19%,0.06 OD450,18%,0.06 OD450,0.08 OD450,0.05 OD450
B2,1.37 OD450,0.27 OD450,0.05 OD450,22%,19%,0.05 OD450,16%,0.05 OD450,1.03 OD450,0.07 OD450
B3,2.42 OD450,0.95 OD450,0.07 OD450,23%,20%,0.09 OD450,20%,0.07 OD450,1.65 OD450,0.25 OD450
